From patent US20250092119A1 come the findings set out here.

This test addresses human neutrophil elastase (human) (UniProt P08246). Kind of test: cell-based or functional assay. The note with it: scale: moles of AAT polypeptide per mole of protease.
UniProt P08246, sequence (P08246 30-247 limits assumed): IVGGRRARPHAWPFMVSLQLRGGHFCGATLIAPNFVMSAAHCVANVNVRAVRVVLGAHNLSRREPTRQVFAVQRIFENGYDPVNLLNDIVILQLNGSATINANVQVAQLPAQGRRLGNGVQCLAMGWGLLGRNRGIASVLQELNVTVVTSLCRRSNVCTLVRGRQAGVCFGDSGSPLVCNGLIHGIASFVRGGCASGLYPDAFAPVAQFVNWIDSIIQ
“Breach graft (wtAAT carrying S276K, T278E, T323E, D325N, K327E) (from UniProt P01009 41-418)” registered an SI against HNE (n = 3) of 1.09. The figure for “F35 graft (wtAAT carrying L275F, I324V, M358I) (from UniProt P01009 41-418)” is 1.11.

With “Helix-F graft (wtAAT carrying G99A, Y144W, Y171A) (from UniProt P01009 41-418)”, the SI against HNE (n = 3) turned out to be 1.35.
